Experimental data taken from FireProtDB (doi:10.1111/j.1399-3011.1991.tb01525.x).

Conditions: Aspergillus oryzae (strain ATCC 42149 / RIB 40), Thermal, DSC, glycine 0.05 M, reversible: yes, whole UniProt chain shown

B1: Guanyl-specific ribonuclease T1 wild type, P00651 (protein)
chain: MMYSKLLTLTTLLLPTALALPSLVERACDYTCGSNCYSSSDVSTAQAAGYQLHEDGETVGSNSYPHKYNNYEGFDFSVSSPYYEWPILSSGDVYSGGSPGADRVVFNENNQLAGVITHTGASGNNFVECT
Tm (pH 2): 39.2 °C | unfolding enthalpy (calorimetric) (pH 2): 82 kcal/mol | Tm (pH 2.5): 45.6 °C | unfolding enthalpy (calorimetric) (pH 2.5): 89.4 kcal/mol | heat capacity change of unfolding (pH 3, 40 °C): 1.19 kcal/mol/K | unfolding free energy (pH 3, 40 °C): 2.94 kcal/mol | Tm (pH 3): 50.5 °C | unfolding enthalpy (calorimetric) (pH 3): 97.3 kcal/mol | Tm (pH 4): 63.3 °C | unfolding enthalpy (calorimetric) (pH 4): 110 kcal/mol
